The values that follow come from PMC12751338, “Biochemical and functional characterization of orf virus decapping protein OV71” (Virology Journal, 2025).

In data set [1] the test system is his-OV71 (Orf virus (Taiping strain)). As to the kind of experiment: competition. To be noted: EMSA: 20 mM HEPES, 10 mM EDTA, 1 M KCl, 1 mM DTT, 80 ug/mL BSA, 50% glycerol (so in the source), on ice 15 min, 0.05 pmol RNA. Pulldown: 100 mM K acetate. On the technique in general: Mobility shift assays separate free from complexed probe on a gel.
In data set [2] the target is T1, OV71 (ORFV071; his-OV71) (Orf virus strain SA00, UniProt Q6TVP9).
T1 construct: His-tagged, pET24a (NdeI/XhoI), E. coli BL21(DE3), Talon cobalt resin; approx. 25 kDa
Description: competition in decapping of radiolabeled capped RNA, TLC. Type of data set: biochemical. To be noted: 206-nt cap-labeled RNA substrate; 4 pmol enzyme; 2 mM MgCl2, 0.5 mM MnCl2, pH 7.5, 37 °C; added product as competitor.

On to 206 nt uncapped RNA competitor, for which the IC50 in data set [1] was 40 pmol.

Turning to `C[n+]1cn([C@@H]2O[C@H](COP(=O)(O)OP(=O)(O)O)[C@@H](O)[C@H]2O)c2nc(N)[nH]c(=O)c21` [m^7GDP], the relative decapping ratio result in data set [2] is “decapping product m^7GDP modestly inhibited the decapping (Fig. 3D and E), indicating weak affinity”.
